Results from US20020081623A1.

Target: RANTES/eotaxin binding sites on guinea-pig eosinophils (guinea-pig)
Assay: binding of 0.1 nM 125I-RANTES to 4x10^5 guinea-pig eosinophils without competitor

B0: 14.4%
Substance: human RANTES (from UniProt P13501 24-91) (ligand)
